The source of these data is US20080118512A1 (DELENEX THERAPEUTICS, published 2008).

T1: human ALK epitope peptide (amino acids 391-406 of the ALK protein) (human)
T1 construct: In the yeast two-hybrid screen it was a C-terminal fusion to LexA; also called Alk LBD peptide; Alk LBD
T1 peptide: GRIGRPDNPFRVALEY

B1: 2.11 (scFv)
scFv (VL-linker-VH): QSVLTQPPSVSAAPGQKVTISCSGSTSNIGDNYVSWYQQLPGTAPQLLIYDNTKRPSGIPDRFSGSKSGTSATLGITGLQTGDEADYYCATWDNDKWGVVFGGGTKLEVLGGGGGSGGGGSGGGGSSGGGSEVQLVESGGGLVQPGGSLRLSCAASGFTFSSYAMSWVRQAPGKGLEWVSAIRTDSKEQYYADSVKGRFTISRDNSKNTLYLQMNSLRAEDTAVYYCARDAWLDVLSDGFDYWGQGTLVTVSS
notes: One of the seven improved scFvs (group m4); The full chain is assembled from ESBA521 with its VH CDR2 exchanged; also called scFv 2.11
B2: 33.11 (scFv)
scFv (VL-linker-VH): QSVLTQPPSVSAAPGQKVTISCSGSTSNIGDNYVSWYQQLPGTAPQLLIYDNTKRPSGIPDRFSGSKSGTSATLGITGLQTGDEADYYCATWDNDKWGVVFGGGTKLEVLGGGGGSGGGGSGGGGSSGGGSEVQLVESGGGLVQPGGSLRLSCAASGFTFSSYAMSWVRQAPGKGLEWVSAINTGGGSTYYADSVKGRFTISRDNSKNTLYLQMNSLRAEDTAVYYCARDAWLDVLSDGFDYWGQGTLVTVSS
notes: One of the seven improved scFvs (group m4); The full chain is assembled from ESBA521 with its VH CDR2 exchanged; also called scFv 33.11
B3: 265.1 (scFv)
scFv (VL-linker-VH): QSVLTQPPSVSAAPGQKVTISCSGSTSNIGDNYVSWYQQLPGTAPQLLIYDNTKRPSGIPDRFSGSKSGTSATLGITGLQTGDEADYYCATWDNDKWGVVFGGGTKLEVLGGGGGSGGGGSGGGGSSGGGSEVQLVESGGGLVQPGGSLRLSCAASGFTFSSYAMSWVRQAPGKGLEWVSAINMKGNDRYYADSVKGRFTISRDNSKNTLYLQMNSLRAEDTAVYYCARDAWLDVLSDGFDYWGQGTLVTVSS
notes: One of the seven improved scFvs (group m4); The full chain is assembled from ESBA521 with its VH CDR2 exchanged
B4: 100.2 (scFv)
scFv (VL-linker-VH): QSVLTQPPSVSAAPGQKVTISCSGSTSNIGDNYVSWYQQLPGTAPQLLIYDNTKRPSGIPDRFSGSKSGTSATLGITGLQTGDEADYYCATWDNDKWGVVFGGGTKLEVLGGGGGSGGGGSGGGGSSGGGSEVQLVESGGGLVQPGGSLRLSCAASGFTFSSYAMSWVRQAPGKGLEWVSAIKTDGNHKYYADSVKGRFTISRDNSKNTLYLQMNSLRAEDTAVYYCARDAWLDVLSDGFDYWGQGTLVTVSS
notes: as for B3
B5: 4.12 (scFv)
scFv (VL-linker-VH): QSVLTQPPSVSAAPGQKVTISCSGSTSNIGDNYVSWYQQLPGTAPQLLIYDNTKRPSGIPDRFSGSKSGTSATLGITGLQTGDEADYYCATWDNDKWGVVFGGGTKLEVLGGGGGSGGGGSGGGGSSGGGSEVQLVESGGGLVQPGGSLRLSCAASGFTFSSYAMSWVRQAPGKGLEWVSAINTRGQNEYYADSVKGRFTISRDNSKNTLYLQMNSLRAEDTAVYYCARDAWLDVLSDGFDYWGQGTLVTVSS
notes: as for B3
B6: 43.2 (scFv)
scFv (VL-linker-VH): QSVLTQPPSVSAAPGQKVTISCSGSTSNIGDNYVSWYQQLPGTAPQLLIYDNTKRPSGIPDRFSGSKSGTSATLGITGLQTGDEADYYCATWDNDKWGVVFGGGTKLEVLGGGGGSGGGGSGGGGSSGGGSEVQLVESGGGLVQPGGSLRLSCAASGFTFSSYAMSWVRQAPGKGLEWVSAIRTNSKEYYADSVKGRFTISRDNSKNTLYLQMNSLRAEDTAVYYCARDAWLDVLSDGFDYWGQGTLVTVSS
notes: as for B3

The test has as its target T1, human ALK epitope peptide (amino acids …). Description: ELISA; the coated antigen is not named on the sheet or in the legend, taken as the ALK epitope peptide. Background: An ELISA detects its analyte on a solid surface through an enzyme-linked reagent.
As to B1, the binding result was “binds”.
Under B2 stands “binds”; under B3, “binds”; under B4, “binds”.
Consider B5, for which the binding result was “binds”.
On to B6, for which the binding result is given as “binds”.
